Experimental data from patent US20220177587A1, “METHODS AND USES OF VARIANT CD80 FUSION PROTEINS AND RELATED CONSTRUCTS” (Alpine Immune Sciences, Inc., priority 2018, published 2022).

Columns and labels:
[1] = target: huCTLA4 (Homo sapiens, UniProt P16410); experiment: Antagonism of CD80/CTLA-4 binding on CHO cells expressing CTLA-4; parameters: Full-length mammalian surface expression constructs for each of human CTLA-4, PD-L1, and CD28; settings: 25 nM fluorochrome-conjugated wild-type CD80-Fc; FIG. 21
Procedure: After washing, cells were incubated with 25 nM fluorochrome-conjugated wild-type CD80-Fc. Bound fluorescent competitor protein was detected and measured by flow cytometry.
The multivalent variant CD80 IgSF domain fusion proteins were assessed to test for blocking of the PD-L1/PD-1 and CTLA-4/CD80 interaction performed substantially as described in Example 15. CHO/OKT3/PD-L1 and CHO/CTLA-4 cells were counted and plated at 100,000 cells/well and then incubated with fluorescently conjugated PD-1-Fc and CD80-Fc. Exemplary multivalent variant CD80 IgSF domain fusion proteins were incubated with the cells for 30 minutes. […] Cells were washed and incubated with 100 nM fluorescently conjugated PD-1-Fc and CD80-Fc competitor for 30 minutes. Cells were then washed and samples were acquired on a flow cytometer and MFIs of the fluorescently labeled molecules were determined.

[2] = tested on: human PD-L1-transduced MC38 tumor; experiment: huPD-L1 MC38 tumor model, combination with anti-PD-L1 or anti-CD28 blocking antibodies; type: in vivo, mouse
Procedure: Anti-tumor activity was evaluated by serial tumor measurements.

[3] = target: CD28 (Homo sapiens, UniProt P10747); experiment: Jurkat/IL2 + K562/OKT3/PD-L1 reporter assay; type: cell-based; parameters: host or cells: Jurkat cells expressing an IL-2-luciferase reporter; settings: IgV-Fc (inert); various concentrations; FIG. 5

huCTLA4, sequence (P16410 36-223): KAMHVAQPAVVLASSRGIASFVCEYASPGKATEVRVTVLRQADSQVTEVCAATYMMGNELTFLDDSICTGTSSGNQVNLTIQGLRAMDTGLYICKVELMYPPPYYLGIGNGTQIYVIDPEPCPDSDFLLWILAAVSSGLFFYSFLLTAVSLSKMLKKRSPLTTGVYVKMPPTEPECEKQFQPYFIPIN

“H18Y/A26E/E35D/M47L/V68M/A71G/D90G: variant CD80 IgV-Fc (inert), IgV SEQ ID NO:491” was tested, and the “antagonism of binding of CD80 to CTLA-4” value [1] was “antagonized the binding of CD80 to CTLA-4”, the antitumor activity ([2]; coadministration with anti-CD28 or anti-PD-L1) was “coadministration with either anti-CD28 or anti-PD-L1 reduced the antitumor activity” and the antitumor activity ([2]; monotherapy 100 μg IP) was “demonstrated activity superior to PD-L1 blockade alone”. The “PD-L1 dependent CD28 costimulation (luciferase activity)” value [3] was “induced PD-L1 dependent CD28 costimulation in a dose-dependent manner”.
